Measurements taken from publication PMC8171077.

Legend:
[1] = FITC-FA fluorescence microscopy of stable cell lines, 24 h; conditions: glycan lost; control: FOLR1 WT stable cells
[2] = qRT-PCR and label-free quantitative proteomics of FOLR1; conditions: glycan changed form; control: matched control stable cells

Row | Protein | other: folate uptake [1] | expression_or_secretion [2]
1 | folate receptor alpha (FOLR1): N69A (protein) parent chain: MAQRMTTQLLLLLVWVAVVGEAQTRIAWARTELLNVCMNAKHHKEKPGPEDKLHEQCRPWRKNACCSTNTSQEAHKDVSYLYRFNWNHCGEMAPACKRHFIQDTCLYECSPNLGPWIQQVDQSWRKERVLNVPLCKEDCEQWWEDCRTSYTCKSNWHKGWNWTSGFNKCAVGAACQPFHFYFPTPTVLCNEIWTHSYKVSNYSRGSGRCIQMWFDPAQGNPNEEVARFYAAAMSGAGPWAAWPFLLSLALMLLWLLS | decreases | –
2 | folate receptor alpha (FOLR1): shFUT8 (protein) parent chain: MAQRMTTQLLLLLVWVAVVGEAQTRIAWARTELLNVCMNAKHHKEKPGPEDKLHEQCRPWRKNACCSTNTSQEAHKDVSYLYRFNWNHCGEMAPACKRHFIQDTCLYECSPNLGPWIQQVDQSWRKERVLNVPLCKEDCEQWWEDCRTSYTCKSNWHKGWNWTSGFNKCAVGAACQPFHFYFPTPTVLCNEIWTHSYKVSNYSRGSGRCIQMWFDPAQGNPNEEVARFYAAAMSGAGPWAAWPFLLSLALMLLWLLS | – | no change
3 | folate receptor alpha (FOLR1): N201A (protein) parent chain: MAQRMTTQLLLLLVWVAVVGEAQTRIAWARTELLNVCMNAKHHKEKPGPEDKLHEQCRPWRKNACCSTNTSQEAHKDVSYLYRFNWNHCGEMAPACKRHFIQDTCLYECSPNLGPWIQQVDQSWRKERVLNVPLCKEDCEQWWEDCRTSYTCKSNWHKGWNWTSGFNKCAVGAACQPFHFYFPTPTVLCNEIWTHSYKVSNYSRGSGRCIQMWFDPAQGNPNEEVARFYAAAMSGAGPWAAWPFLLSLALMLLWLLS | decreases | –
4 | folate receptor alpha (FOLR1): FUT8 overexpression (protein) parent chain: MAQRMTTQLLLLLVWVAVVGEAQTRIAWARTELLNVCMNAKHHKEKPGPEDKLHEQCRPWRKNACCSTNTSQEAHKDVSYLYRFNWNHCGEMAPACKRHFIQDTCLYECSPNLGPWIQQVDQSWRKERVLNVPLCKEDCEQWWEDCRTSYTCKSNWHKGWNWTSGFNKCAVGAACQPFHFYFPTPTVLCNEIWTHSYKVSNYSRGSGRCIQMWFDPAQGNPNEEVARFYAAAMSGAGPWAAWPFLLSLALMLLWLLS | – | no change
5 | folate receptor alpha (FOLR1): N161A (protein) parent chain: MAQRMTTQLLLLLVWVAVVGEAQTRIAWARTELLNVCMNAKHHKEKPGPEDKLHEQCRPWRKNACCSTNTSQEAHKDVSYLYRFNWNHCGEMAPACKRHFIQDTCLYECSPNLGPWIQQVDQSWRKERVLNVPLCKEDCEQWWEDCRTSYTCKSNWHKGWNWTSGFNKCAVGAACQPFHFYFPTPTVLCNEIWTHSYKVSNYSRGSGRCIQMWFDPAQGNPNEEVARFYAAAMSGAGPWAAWPFLLSLALMLLWLLS | decreases | –
